Experimental data published in publication doi:10.1101/751602 (bioRxiv, 2019).
Values belong to the molecule of their own block, whether it stands above or below them.

Experiments:
[1] = target: AtBAM2 with the Ndel1 truncation (Arabidopsis thaliana) (UniProt O65258); test: small-angle X-ray scattering
[2] = target: the molecule itself; test: small-angle X-ray scattering

stoichiometry N [1]: 4
Molecule: AtBAM2 with the Ndel1 truncation (from UniProt O65258 86-542) (domain or fragment)

B1: Arabidopsis thaliana β-amylase2 (AtBAM2), wild type (enzyme, UniProt O65258 56-542, looked up)
chain: AESTEEDRVPIDDDDDSTDQLVDEEIVHFEERDFAGTACVPVYVMLPLGVIDMNSEVVEPEELLDQLRTLKSVNVDGVMVDCWWGIVESHTPQVYNWSGYKKLFQMIRELGLKIQVVMSFHECGGNVGDDVHIQIPEWVREIGQSNPDIYFTDSAGRRNTECLTWGIDKQRVLRGRTALEVYFDYMRSFRVEFDEFFEEKIIPEIEVGLGPCGELRYPSYPAQFGWKYPGIGEFQCYDKYLMNSLKEAAEVRGHSFWGRGPDNTETYNSTPHGTGFFRDGGDYDSYYGRFFLNWYSRVLIDHGDRVLAMANLAFEGTCIAAKLSGIHWWYKTASHAAELTAGFYNSSNRDGYGPIAAMFKKHDAALNFTCVELRTLDQHEDFPEALADPEGLVWQVLNAAWDASIPVASENALPCYDREGYNKILENAKPLTDPDGRHLSCFTYLRLNPTLMESQNFKEFERFLKRMHGEAVPDLGLAPGTQETNPE
stoichiometry N [2]: 4
